Laboratory results published in paper PMC4431184, “The Use of the LanthaScreen TR-FRET CAR Coactivator Assay in the Characterization of Constitutive Androstane Receptor (CAR) Inverse Agonists” (Sensors (Basel, Switzerland), 2015).
Ends that are not written are not given here.

Molecular target: T1, glutathione-S-transferase (GST) tagged human CAR ligand-binding domain (LBD) (human)
T1 construct: Component of a bought kit; It was held in the assay by a terbium-labelled anti-GST antibody (a tool only); also called CAR LBD; CAR-LBD
T1 sequence (Q14994 whole entry, looked up): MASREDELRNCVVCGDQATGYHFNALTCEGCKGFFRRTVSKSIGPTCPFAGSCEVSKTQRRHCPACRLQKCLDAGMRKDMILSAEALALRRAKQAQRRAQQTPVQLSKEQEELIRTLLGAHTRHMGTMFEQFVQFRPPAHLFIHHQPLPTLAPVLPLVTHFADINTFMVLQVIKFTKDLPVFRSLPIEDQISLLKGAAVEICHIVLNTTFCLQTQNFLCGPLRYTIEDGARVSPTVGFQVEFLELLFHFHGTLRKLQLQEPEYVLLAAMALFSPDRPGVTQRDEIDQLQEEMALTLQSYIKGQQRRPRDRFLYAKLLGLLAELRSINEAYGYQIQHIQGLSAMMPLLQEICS
Test: FRET or BRET; LanthaScreen TR-FRET as a1, with the agonist CITCO 10 uM; three orders of adding the reagents (Figure 2A, 2B, 2C standard)
Settings: both partners purified

EAEEPSLLKKLLLAPANTQ (also: fluorescein label, position not given here) [fluorescein-labeled PGC1α coactivator peptide]
fold of TR-FRET ratio with CITCO 10 uM over vehicle control (order: CAR LBD, peptide and antibody, CITCO): 1.94 fold | fold of TR-FRET ratio with CITCO 10 uM over vehicle control (order: CITCO, peptide and antibody, CAR LBD): 2.26 fold | fold of TR-FRET ratio with CITCO 10 uM over vehicle control (standard order): 2.56 fold
